This test has as its target Nrx-1 C-term peptide (last 10 C-terminal residues of Drosophila Nrx-1) (Drosophila) (UniProt Q3KN41). Kind of test: ITC; Nrx-1 C-term peptide with the PDZ domains of Spn or Syd-1; details in the Supplementary Methods.

For two substances, Kd results are on record in PMC4633989.

Sequence of UniProt Q3KN41 (Q3KN41 whole entry, looked up, the tested form may be a part): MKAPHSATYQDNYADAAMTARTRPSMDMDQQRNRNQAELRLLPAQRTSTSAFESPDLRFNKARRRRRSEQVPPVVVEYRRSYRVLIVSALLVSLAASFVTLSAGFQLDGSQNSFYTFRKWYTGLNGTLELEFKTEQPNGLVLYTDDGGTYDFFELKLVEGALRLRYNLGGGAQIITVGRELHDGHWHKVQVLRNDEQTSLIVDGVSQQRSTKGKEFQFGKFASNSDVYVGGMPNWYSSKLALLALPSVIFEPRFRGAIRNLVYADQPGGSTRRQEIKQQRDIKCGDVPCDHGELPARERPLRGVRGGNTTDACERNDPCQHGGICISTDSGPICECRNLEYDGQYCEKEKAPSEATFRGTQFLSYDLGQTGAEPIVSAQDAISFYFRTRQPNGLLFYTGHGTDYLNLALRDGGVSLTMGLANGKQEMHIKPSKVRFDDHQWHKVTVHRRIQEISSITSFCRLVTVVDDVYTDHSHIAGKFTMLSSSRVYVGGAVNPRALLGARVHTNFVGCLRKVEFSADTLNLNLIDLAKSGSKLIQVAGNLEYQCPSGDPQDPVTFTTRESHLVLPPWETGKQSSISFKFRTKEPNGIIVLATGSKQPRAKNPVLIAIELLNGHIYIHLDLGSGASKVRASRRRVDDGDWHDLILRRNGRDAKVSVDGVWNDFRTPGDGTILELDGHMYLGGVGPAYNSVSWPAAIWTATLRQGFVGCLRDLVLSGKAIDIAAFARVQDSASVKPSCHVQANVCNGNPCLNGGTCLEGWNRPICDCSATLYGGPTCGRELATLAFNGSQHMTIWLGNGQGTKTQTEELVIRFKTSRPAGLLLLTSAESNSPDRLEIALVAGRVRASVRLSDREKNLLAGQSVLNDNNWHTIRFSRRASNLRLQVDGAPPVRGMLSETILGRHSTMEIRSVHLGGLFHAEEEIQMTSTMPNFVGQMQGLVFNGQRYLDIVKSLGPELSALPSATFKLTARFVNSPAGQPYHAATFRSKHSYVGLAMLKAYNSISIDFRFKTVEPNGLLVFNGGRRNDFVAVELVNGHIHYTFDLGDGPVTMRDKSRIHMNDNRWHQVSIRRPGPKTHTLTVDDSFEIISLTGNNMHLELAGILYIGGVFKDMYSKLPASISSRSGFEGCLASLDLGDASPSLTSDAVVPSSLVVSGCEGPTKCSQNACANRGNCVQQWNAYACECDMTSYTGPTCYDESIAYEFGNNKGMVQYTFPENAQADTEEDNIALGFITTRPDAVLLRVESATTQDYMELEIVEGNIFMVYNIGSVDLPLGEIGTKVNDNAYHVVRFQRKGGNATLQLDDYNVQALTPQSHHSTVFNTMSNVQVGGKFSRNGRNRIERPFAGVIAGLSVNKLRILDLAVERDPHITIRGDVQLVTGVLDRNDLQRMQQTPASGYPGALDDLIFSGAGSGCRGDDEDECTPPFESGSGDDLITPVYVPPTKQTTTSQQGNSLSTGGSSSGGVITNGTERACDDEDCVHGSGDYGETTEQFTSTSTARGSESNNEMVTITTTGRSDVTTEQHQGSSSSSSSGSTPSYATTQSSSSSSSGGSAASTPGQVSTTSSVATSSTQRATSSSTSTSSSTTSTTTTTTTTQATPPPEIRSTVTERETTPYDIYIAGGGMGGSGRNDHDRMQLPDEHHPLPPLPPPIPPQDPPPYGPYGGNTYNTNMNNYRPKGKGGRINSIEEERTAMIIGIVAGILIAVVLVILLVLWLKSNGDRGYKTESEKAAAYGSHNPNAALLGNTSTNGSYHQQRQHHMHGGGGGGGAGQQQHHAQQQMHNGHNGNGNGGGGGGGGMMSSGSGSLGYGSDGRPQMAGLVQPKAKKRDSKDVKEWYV

Consider “Drosophila Spn-PDZ domain (dmSpn residues 1,258-1,347) (domain or fragment)”, for which the Kd was 50 µM.
The figure for “Drosophila Syd-1-PDZ domain (dmSyd-1 residues 155-242) (domain or fragment)” is 5 µM.
